Key:
[1] = biological target: T1, human MCSP expressed on tumor cells (Colo-38, WM266-4, MV-3) (human, UniProt Q6UVK1 30-2322); assay: cell-based or functional assay
[2] = biological target: T1, human MCSP expressed on tumor cells …; assay: cell-based or functional assay; remark: listed apart in the source
[3] = biological target: T2, human CD3 expressed on Jurkat cells (human, UniProt P07766 23-207); assay: flow cytometry on Jurkat cells
T2 construct: CD3 as part of the T cell receptor complex on Jurkat cells; also called huCD3; human CD3 on cells

[4] = biological target: T1, human MCSP expressed on tumor cells …; assay: flow cytometry on WM266-4 cells

T2 sequence (P07766 23-207 limits assumed): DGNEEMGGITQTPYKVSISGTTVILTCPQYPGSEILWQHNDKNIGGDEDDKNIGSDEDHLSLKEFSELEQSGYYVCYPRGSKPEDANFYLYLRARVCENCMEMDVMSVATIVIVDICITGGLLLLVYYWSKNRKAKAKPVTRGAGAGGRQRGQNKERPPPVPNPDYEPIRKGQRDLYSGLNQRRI
T1 sequence (Q6UVK1 30-2322): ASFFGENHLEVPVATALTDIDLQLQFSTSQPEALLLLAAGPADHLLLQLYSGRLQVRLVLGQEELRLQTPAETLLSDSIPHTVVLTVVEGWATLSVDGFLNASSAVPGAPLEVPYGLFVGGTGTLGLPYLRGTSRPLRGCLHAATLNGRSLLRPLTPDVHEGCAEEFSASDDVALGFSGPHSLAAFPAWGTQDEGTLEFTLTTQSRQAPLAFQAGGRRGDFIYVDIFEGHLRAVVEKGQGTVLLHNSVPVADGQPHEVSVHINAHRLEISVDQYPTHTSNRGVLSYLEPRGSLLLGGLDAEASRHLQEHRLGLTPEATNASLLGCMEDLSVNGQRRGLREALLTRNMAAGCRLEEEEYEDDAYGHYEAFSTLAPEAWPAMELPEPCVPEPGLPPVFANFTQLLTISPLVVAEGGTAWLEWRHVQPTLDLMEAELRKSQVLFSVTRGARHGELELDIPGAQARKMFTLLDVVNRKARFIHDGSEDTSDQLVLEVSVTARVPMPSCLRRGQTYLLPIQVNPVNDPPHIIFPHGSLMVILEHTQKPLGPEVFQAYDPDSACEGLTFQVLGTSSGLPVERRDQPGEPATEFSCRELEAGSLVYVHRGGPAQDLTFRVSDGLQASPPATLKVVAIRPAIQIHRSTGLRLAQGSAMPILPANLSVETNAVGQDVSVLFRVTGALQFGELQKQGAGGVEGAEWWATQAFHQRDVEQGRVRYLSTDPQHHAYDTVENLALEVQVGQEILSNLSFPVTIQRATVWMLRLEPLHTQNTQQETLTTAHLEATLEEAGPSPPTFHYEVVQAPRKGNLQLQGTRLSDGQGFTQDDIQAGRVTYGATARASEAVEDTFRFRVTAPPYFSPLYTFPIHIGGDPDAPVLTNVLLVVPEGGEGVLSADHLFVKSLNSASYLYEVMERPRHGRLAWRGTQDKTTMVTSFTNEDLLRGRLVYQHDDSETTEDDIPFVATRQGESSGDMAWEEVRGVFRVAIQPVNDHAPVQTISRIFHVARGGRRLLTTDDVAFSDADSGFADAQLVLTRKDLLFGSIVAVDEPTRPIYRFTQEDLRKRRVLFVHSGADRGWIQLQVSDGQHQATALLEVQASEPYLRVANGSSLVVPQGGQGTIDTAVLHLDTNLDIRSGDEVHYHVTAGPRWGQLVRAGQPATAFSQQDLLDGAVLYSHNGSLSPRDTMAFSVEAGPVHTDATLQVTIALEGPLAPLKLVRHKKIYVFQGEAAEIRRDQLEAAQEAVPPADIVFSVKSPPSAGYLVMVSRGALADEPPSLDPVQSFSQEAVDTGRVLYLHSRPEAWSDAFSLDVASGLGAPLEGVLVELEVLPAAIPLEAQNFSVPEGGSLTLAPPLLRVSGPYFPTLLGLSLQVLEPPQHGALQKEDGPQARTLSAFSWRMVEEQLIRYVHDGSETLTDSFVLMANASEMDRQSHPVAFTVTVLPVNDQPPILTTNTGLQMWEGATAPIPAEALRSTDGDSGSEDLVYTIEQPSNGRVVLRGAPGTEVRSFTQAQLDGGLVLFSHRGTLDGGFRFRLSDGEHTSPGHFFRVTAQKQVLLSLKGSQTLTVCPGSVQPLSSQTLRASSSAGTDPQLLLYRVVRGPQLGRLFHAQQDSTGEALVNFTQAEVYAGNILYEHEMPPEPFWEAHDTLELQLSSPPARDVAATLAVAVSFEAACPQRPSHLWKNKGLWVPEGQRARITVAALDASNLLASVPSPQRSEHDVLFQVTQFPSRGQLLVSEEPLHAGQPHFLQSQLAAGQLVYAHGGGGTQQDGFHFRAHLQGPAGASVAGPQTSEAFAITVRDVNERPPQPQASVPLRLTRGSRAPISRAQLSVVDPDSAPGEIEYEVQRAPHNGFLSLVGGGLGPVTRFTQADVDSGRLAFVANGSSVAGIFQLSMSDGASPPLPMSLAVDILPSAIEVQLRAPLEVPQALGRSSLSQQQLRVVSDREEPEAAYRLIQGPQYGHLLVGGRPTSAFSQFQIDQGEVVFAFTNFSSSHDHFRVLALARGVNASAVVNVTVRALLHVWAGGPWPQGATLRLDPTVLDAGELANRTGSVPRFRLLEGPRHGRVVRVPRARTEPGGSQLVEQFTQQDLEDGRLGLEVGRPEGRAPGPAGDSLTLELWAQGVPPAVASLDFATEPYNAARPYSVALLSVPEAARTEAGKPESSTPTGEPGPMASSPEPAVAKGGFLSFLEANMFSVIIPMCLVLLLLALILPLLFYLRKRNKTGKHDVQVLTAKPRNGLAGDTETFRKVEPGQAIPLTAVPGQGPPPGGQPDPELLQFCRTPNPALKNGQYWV

Binder | EC50 of killing (LDH release) of MV-3 cells, human PBMCs, E:T 10:1, 21 h [1] [nM] | EC50 of killing (LDH release) of WM266-4 cells, human PBMCs, E:T 10:1, 21 h [1] [nM] | EC50 [pM] of T cell-mediated killing (LDH release) of MV-3 cells, human PBMCs, E:T 10:1, about 24 h [2] [pM] | EC50 [pM] of T cell-mediated killing (LDH release) of WM266-4 cells, human PBMCs, E:T 10:1, about 24 h [2] [pM] | EC50 [3] [nM] | EC50 [4] [nM]
“2+1 IgG Crossfab”; VH/VL exchange (LC007/V9) (anti-MCSP/anti-huCD3) (bispecific antibody, vectors transfected 1:2:1:1 (second heavy chain : light chain : first heavy chain-heavy chain Crossfab : light chain Crossfab); also called 2+1 IgG Crossfab (V9)) chain 1: not shown chain 2: DIVLTQSPSSLSASLGDRVTISCSASQGIRNYLNWYQQRPDGTVKLLIYYTSSLHSGVPSRFSGSGSGTDYSLTISNLEPEDIATYYCQQYSKLPWTFGGGTKLEIKRTVAAPSVFIFPPSDEQLKSGTASVVCLLNNFYPREAKVQWKVDNALQSGNSQESVTEQDSKDSTYSLSSTLTLSKADYEKHKVYACEVTHQGLSSPVTKSFNRGEC chain 3: DIQMTQSPSSLSASVGDRVTITCRASQDIRNYLNWYQQKPGKAPKLLIYYTSRLESGVPSRFSGSGSGTDYTLTISSLQPEDFATYYCQQGNTLPWTFGQGTKVEIKSSASTKGPSVFPLAPSSKSTSGGTAALGCLVKDYFPEPVTVSWNSGALTSGVHTFPAVLQSSGLYSLSSVVTVPSSSLGTQTYICNVNHKPSNTKVDKKVEPKSCGGGGSGGGGSEVQLQESGPGLVKPSQSLSLTCSVTGYSITSGYYWNWIRQFPGNKLEWMGYITYDGSNNYNPSLKNRISITRDTSKNQFFLKLNSVTTEDTATYYCADFDYWGQGTTLTVSSASTKGPSVFPLAPSSKSTSGGTAALGCLVKDYFPEPVTVSWNSGALTSGVHTFPAVLQSSGLYSLSSVVTVPSSSLGTQTYICNVNHKPSNTKVDKKVEPKSCDKTHTCPPCPAPEAAGGPSVFLFPPKPKDTLMISRTPEVTCVVVDVSHEDPEVKFNWYVDGVEVHNAKTKPREEQYNSTYRVVSVLTVLHQDWLNGKEYKCKVSNKALGAPIEKTISKAKGQPREPQVCTLPPSRDELTKNQVSLSCAVKGFYPSDIAVEWESNGQPENNYKTTPPVLDSDGSFFLVSKLTVDKSRWQQGNVFSCSVMHEALHNHYTQKSLSLSPGK chain 4: EVQLVESGGGLVQPGGSLRLSCAASGYSFTGYTMNWVRQAPGKGLEWVALINPYKGVSTYNQKFKDRFTISVDKSKNTAYLQMNSLRAEDTAVYYCARSGYYGDSDWYFDVWGQGTLVTVSSASVAAPSVFIFPPSDEQLKSGTASVVCLLNNFYPREAKVQWKVDNALQSGNSQESVTEQDSKDSTYSLSSTLTLSKADYEKHKVYACEVTHQGLSSPVTKSFNRGEC | 0.0092 | 0.0331 | 10 | 12.4 | 1.66 | 0.95
“2+1 IgG Crossfab”; CL/CH1 exchange (LC007/anti-CD3) (anti-MCSP/anti-huCD3) (bispecific antibody) chain 1: DIVLTQSPSSLSASLGDRVTISCSASQGIRNYLNWYQQRPDGTVKLLIYYTSSLHSGVPSRFSGSGSGTDYSLTISNLEPEDIATYYCQQYSKLPWTFGGGTKLEIKRTVAAPSVFIFPPSDEQLKSGTASVVCLLNNFYPREAKVQWKVDNALQSGNSQESVTEQDSKDSTYSLSSTLTLSKADYEKHKVYACEVTHQGLSSPVTKSFNRGEC chain 2: EVQLQESGPGLVKPSQSLSLTCSVTGYSITSGYYWNWIRQFPGNKLEWMGYITYDGSNNYNPSLKNRISITRDTSKNQFFLKLNSVTTEDTATYYCADFDYWGQGTTLTVSSASTKGPSVFPLAPSSKSTSGGTAALGCLVKDYFPEPVTVSWNSGALTSGVHTFPAVLQSSGLYSLSSVVTVPSSSLGTQTYICNVNHKPSNTKVDKKVEPKSCDKTHTCPPCPAPEAAGGPSVFLFPPKPKDTLMISRTPEVTCVVVDVSHEDPEVKFNWYVDGVEVHNAKTKPREEQYNSTYRVVSVLTVLHQDWLNGKEYKCKVSNKALGAPIEKTISKAKGQPREPQVCTLPPSRDELTKNQVSLSCAVKGFYPSDIAVEWESNGQPENNYKTTPPVLDSDGSFFLVSKLTVDKSRWQQGNVFSCSVMHEALHNHYTQKSLSLSPGK chain 3: QAVVTQESALTTSPGETVTLTCRSSTGAVTTSNYANWVQEKPDHLFTGLIGGTNKRAPGVPARFSGSLIGDKAALTITGAQTEDEAIYFCALWYSNLWVFGGGTKLTVLSSASTKGPSVFPLAPSSKSTSGGTAALGCLVKDYFPEPVTVSWNSGALTSGVHTFPAVLQSSGLYSLSSVVTVPSSSLGTQTYICNVNHKPSNTKVDKKVEPKSC chain 4: not shown | – | – | 11 | 11.3 | 10.3 | 3.1
“2+1 IgG Crossfab, inverted”; CL/CH1 exchange (LC007/V9) (anti-MCSP/anti-huCD3) (bispecific antibody) chain 1: DIVLTQSPSSLSASLGDRVTISCSASQGIRNYLNWYQQRPDGTVKLLIYYTSSLHSGVPSRFSGSGSGTDYSLTISNLEPEDIATYYCQQYSKLPWTFGGGTKLEIKRTVAAPSVFIFPPSDEQLKSGTASVVCLLNNFYPREAKVQWKVDNALQSGNSQESVTEQDSKDSTYSLSSTLTLSKADYEKHKVYACEVTHQGLSSPVTKSFNRGEC chain 2: EVQLQESGPGLVKPSQSLSLTCSVTGYSITSGYYWNWIRQFPGNKLEWMGYITYDGSNNYNPSLKNRISITRDTSKNQFFLKLNSVTTEDTATYYCADFDYWGQGTTLTVSSASTKGPSVFPLAPSSKSTSGGTAALGCLVKDYFPEPVTVSWNSGALTSGVHTFPAVLQSSGLYSLSSVVTVPSSSLGTQTYICNVNHKPSNTKVDKKVEPKSCDKTHTCPPCPAPEAAGGPSVFLFPPKPKDTLMISRTPEVTCVVVDVSHEDPEVKFNWYVDGVEVHNAKTKPREEQYNSTYRVVSVLTVLHQDWLNGKEYKCKVSNKALGAPIEKTISKAKGQPREPQVCTLPPSRDELTKNQVSLSCAVKGFYPSDIAVEWESNGQPENNYKTTPPVLDSDGSFFLVSKLTVDKSRWQQGNVFSCSVMHEALHNHYTQKSLSLSPGK chain 3: DIQMTQSPSSLSASVGDRVTITCRASQDIRNYLNWYQQKPGKAPKLLIYYTSRLESGVPSRFSGSGSGTDYTLTISSLQPEDFATYYCQQGNTLPWTFGQGTKVEIKSSASTKGPSVFPLAPSSKSTSGGTAALGCLVKDYFPEPVTVSWNSGALTSGVHTFPAVLQSSGLYSLSSVVTVPSSSLGTQTYICNVNHKPSNTKVDKKVEPKSC chain 4: not shown | – | – | 4.1 | 3.7 | 6.1 | 0.57
“2+1 IgG Crossfab, inverted”; CL/CH1 exchange (LC007/anti-CD3) (anti-MCSP/anti-huCD3) (bispecific antibody) chain 1: DIVLTQSPSSLSASLGDRVTISCSASQGIRNYLNWYQQRPDGTVKLLIYYTSSLHSGVPSRFSGSGSGTDYSLTISNLEPEDIATYYCQQYSKLPWTFGGGTKLEIKRTVAAPSVFIFPPSDEQLKSGTASVVCLLNNFYPREAKVQWKVDNALQSGNSQESVTEQDSKDSTYSLSSTLTLSKADYEKHKVYACEVTHQGLSSPVTKSFNRGEC chain 2: EVQLQESGPGLVKPSQSLSLTCSVTGYSITSGYYWNWIRQFPGNKLEWMGYITYDGSNNYNPSLKNRISITRDTSKNQFFLKLNSVTTEDTATYYCADFDYWGQGTTLTVSSASTKGPSVFPLAPSSKSTSGGTAALGCLVKDYFPEPVTVSWNSGALTSGVHTFPAVLQSSGLYSLSSVVTVPSSSLGTQTYICNVNHKPSNTKVDKKVEPKSCDKTHTCPPCPAPEAAGGPSVFLFPPKPKDTLMISRTPEVTCVVVDVSHEDPEVKFNWYVDGVEVHNAKTKPREEQYNSTYRVVSVLTVLHQDWLNGKEYKCKVSNKALGAPIEKTISKAKGQPREPQVCTLPPSRDELTKNQVSLSCAVKGFYPSDIAVEWESNGQPENNYKTTPPVLDSDGSFFLVSKLTVDKSRWQQGNVFSCSVMHEALHNHYTQKSLSLSPGK chain 3: QAVVTQESALTTSPGETVTLTCRSSTGAVTTSNYANWVQEKPDHLFTGLIGGTNKRAPGVPARFSGSLIGDKAALTITGAQTEDEAIYFCALWYSNLWVFGGGTKLTVLSSASTKGPSVFPLAPSSKSTSGGTAALGCLVKDYFPEPVTVSWNSGALTSGVHTFPAVLQSSGLYSLSSVVTVPSSSLGTQTYICNVNHKPSNTKVDKKVEPKSC chain 4: not shown | – | – | 3 | 7.1 | 32 | 3.4

Source: patent US20250043028A1 (Hoffmann-La Roche, published 2025)
